Experimental data from US20210147546A1 (VRIJE UNIVERSITEIT BRUSSEL, published 2021).

Assays:
[1] = molecular target: T1, human PD-L1 expressed on cells (lentivirally transduced HEK293T, MCF7 and 624-MEL cells; endogenous on moDCs) (human, UniProt Q9NZQ7 19-290); test: flow cytometry, fold increase in mean fluorescence intensity of binding to human PD-L1 compared to control sdAb
T1 construct: whole, on cells; also called PD-L1+ MCF7

[2] = molecular target: T2, recombinant His-tagged human PD-L1 protein (SINO Biologicals, 10084-H08H) (human, UniProt Q9NZQ7 19-238); test: SPR (Biacore T200), purified sdAb over immobilized recombinant human PD-L1
T2 construct: Bought protein; also called immobilized recombinant PD-L1 protein; not shown: His-tag
T2 sequence (Q9NZQ7 19-238 limits assumed): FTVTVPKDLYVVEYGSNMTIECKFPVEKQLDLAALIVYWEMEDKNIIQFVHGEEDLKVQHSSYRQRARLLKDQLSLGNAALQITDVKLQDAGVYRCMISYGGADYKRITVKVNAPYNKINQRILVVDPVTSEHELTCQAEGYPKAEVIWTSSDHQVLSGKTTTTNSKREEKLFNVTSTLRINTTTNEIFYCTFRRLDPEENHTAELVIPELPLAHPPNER
Description: (§1) All measurements were performed on a Biacore T200 device (GE Healtcare) at 25° C. and using Hepes-buffered saline (0.01M HEPES, pH 7.4; 0.15M NaCl, 3 mM EDTA, 0.005% Tween20) as running buffer. All recombinant proteins were dissolved to 10 μg/mL in 10 mM Na-acetate (pH 5.0) for immobilization on a CM5 sensor chip using linkage chemistry with 1-(3-(dimethylamino)propyl)-3-ethylcarbodiimide (EDC) and N-hydroxy-succinimide ([…]). Unreacted EDC-NHS linkers were blocked with 1M ethanolamine-HCl. For all measurements, SPR signals in the flow cell with immobilized protein were subtracted with those in a flow cell that underwent the same manipulations but where recombinant protein was omitted, to obtain specific binding signals (response units, RU). Affinity for human PD-L1 of the purified sdAbs was evaluated on immobilized PD-L1 protein.

[3] = molecular target: T3, recombinant Fc-tagged human PD-L1 (R&D Systems, 156-B7) (human, UniProt Q9NZQ7 19-239); test: SPR competition: sdAb mixed with 25 nM PD-L1-Fc, run over immobilized PD-1-Fc (FIG. 5A)
T3 construct: Bought protein; Also the immunogen for the alpacas; also called PD-L1-Fc; Fc-PD-L1; not shown: Fc tag
T3 sequence (Q9NZQ7 19-239 limits assumed): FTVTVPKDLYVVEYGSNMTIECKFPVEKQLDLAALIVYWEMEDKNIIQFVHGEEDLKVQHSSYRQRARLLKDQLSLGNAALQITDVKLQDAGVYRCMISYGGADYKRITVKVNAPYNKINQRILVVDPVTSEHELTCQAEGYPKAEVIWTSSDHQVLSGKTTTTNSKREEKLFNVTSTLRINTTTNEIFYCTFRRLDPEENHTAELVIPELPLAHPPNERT
Description: as §1
(§2) To evaluate the sdAb's IC₅₀, the sdAb concentration at which the relative response of the interaction between PD-1 and PD-L1 is inhibited by half, Fc-PD-1 protein was immobilized on a CM5 chip. […] The maximum relative response values were plotted in function of competing sdAb concentration and analyzed with a “Log inhibitor versus response (variable lope)” model in Prism to calculate IC₅₀ values.

[4] = molecular target: T3, recombinant Fc-tagged human PD-L1 (R&D …); test: SPR competition: sdAb K2 (0,78 to 1000 nM) mixed with 25 nM PD-L1-Fc and run over immobilized PD-1 Fc. The binder is named by legend paragraph 20, not on the sheet. The text gives 9.5 nM for this figure.
Description: as §1, §2

[5] = molecular target: T3, recombinant Fc-tagged human PD-L1 (R&D …); test: SPR competition: sdAb mixed with soluble recombinant human PD-L1, run over immobilized human PD-1 (FIG. 16B)
Text: as §2

T1 sequence (Q9NZQ7 19-290): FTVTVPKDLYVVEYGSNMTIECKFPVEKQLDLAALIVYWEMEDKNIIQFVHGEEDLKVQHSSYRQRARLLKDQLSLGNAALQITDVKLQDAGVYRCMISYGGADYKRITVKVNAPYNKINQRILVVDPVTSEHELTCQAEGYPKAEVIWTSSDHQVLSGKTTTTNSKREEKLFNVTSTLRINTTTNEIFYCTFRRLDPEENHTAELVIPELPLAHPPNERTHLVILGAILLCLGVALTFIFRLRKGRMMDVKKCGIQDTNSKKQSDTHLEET

MFI PD-L1 binding (fold increase) [1] [fold] | Kd [2] [nM] | IC50 [3] [nM] | IC50 [4] [nM] | IC50 [5] [nM] | Binder
6.9 | 4.5 | – | – | – | sdAb K4 (human PD-L1-specific single domain antibody, C-terminal HIS-tag) (VHH) VHH: QVQLQESGGGLVQPGGSLRLSCAASGFTFSSFAMSWVRQVPGRTLEWVSDINTGGDSTDYANSVKGRFTISRDNAKNTLYLQMNSLKPDDTAVYYCANVPKELVFSFASWGRGTQVTVSS
22.8 | 5.2 | 9.5 | 10 | 8.5 | sdAb K2 (human PD-L1-specific single domain antibody, C-terminal HIS-tag) (VHH, also called anti-hPD-L1 sdAb K2; K2 (huPDL1 nanobody)) VHH: QVQLQESGGGLVQPGGSLRLSCAASGFTFSSFAMSWVRQAPGKGLEWVSDIDTTGRTTDYADSVKGRFTISRDNAENTLYLQMNDLKPEDTAVYYCANVPKELVLSFGSWGPGTQVTVSS
23.4 | 3.5 | – | – | – | sdAb K3 (human PD-L1-specific single domain antibody, C-terminal HIS-tag) (VHH, also called K3 (huPDL1 nanobody)) VHH: QVQLQESGGGSVQPGGSLRLSCEASGFTFSSYAMSWVRQAPGEGLEWVSDINTGGDNTDYAGSVKGRFTISRDNAKNTLYLQMDSLKPEDTAKYYCANVPKELVHSFNSWGQGTQVTVSS
